The target in assay [1] is CR8071 lambda light chain L1 with E124R (SMCA design 2826). Kind of assay: SMCA: four chains co-expressed, protein A, LC-MS.
Assay [2] shares this target. The assay can be described thus: SMCA LC-MS.
For assay [3], the target named is CR8071 lambda light chain L1 with Q38E (SMCA design 34). The assay can be described thus: SMCA: four chains co-expressed, protein A, LC-MS.
The target is the same in assay [4]. The assay can be described thus: SMCA LC-MS.
Assay [5] addresses CR8071 lambda light chain L1, design 2188 (V133G_S176R). The assay can be described thus: SMCA, System C, LC-MS.
Assay [6] shares this target. The assay can be described thus: SMCA, System C.
The target of assay [7] is Design 2994 L1: CR8071 lambda light chain E124Q_T131K. The assay can be described thus: SMCA, LC-MS.
Assay [8] has the same target. Kind of assay: SMCA: H1, L1, H2, L2 co-expressed in CHO-3E7, protein A, LC-MS.
Assay [9] has as its target Design 2994 L2: SGN-CD19a kappa light chain Q124E_V133D. The assay can be described thus: SMCA, LC-MS.
Assay [10] shares this target. The assay can be described thus: SMCA: H1, L1, H2, L2 co-expressed in CHO-3E7, protein A, LC-MS.
Assay [11] deals with Design 3954 L2: SGN-CD19a kappa light chain S121K_S176E_T178E. The assay can be described thus: SMCA: H1, L1, H2, L2 co-expressed, protein A, LC-MS.
The target is the same in assay [12]. Described as above. The source holds these as a separate data set.
Assay [13] has the same target. Described as above. The source holds these as a separate data set.
The target in assay [14] is Design 3997 L1: CR8071 lambda light chain S122D_E124Q_T131R. The assay can be described thus: SMCA, LC-MS.
For assay [15] the target is unchanged. The assay can be described thus: SMCA: H1, L1, H2, L2 co-expressed in CHO-3E7, protein A, LC-MS.
For assay [16], the target named is Design 3997 L2: SGN-CD19a kappa light chain S121K_V133I_S176D_T178E. The assay can be described thus: SMCA, LC-MS.
The target is the same in assay [17]. Kind of assay: SMCA: H1, L1, H2, L2 co-expressed in CHO-3E7, protein A, LC-MS.
In assay [18] the target is Design 4008 L2: SGN-CD19a kappa light chain Q124R_L135W_T178R. The assay can be described thus: SMCA, LC-MS.
Assay [19] has as its target Design 4010 L2: SGN-CD19a kappa light chain S131R_V133G_L135W_S176R. The assay can be described thus: SMCA, LC-MS.
Assay [20] addresses Design 4040 L1: CR8071 lambda light chain K129T_S180E. The assay can be described thus: SMCA, LC-MS.
Assay [21] has the same target. The assay can be described thus: SMCA: H1, L1, H2, L2 co-expressed in CHO-3E7, protein A, LC-MS.
The target in assay [22] is Design 4040 L2: SGN-CD19a kappa light chain P44F_Q124K_T178R. Kind of assay: SMCA, LC-MS.
The target is the same in assay [23]. The assay can be described thus: SMCA, LC-MS. The source holds these as a separate data set.
For assay [24] the target is unchanged. The assay can be described thus: SMCA: H1, L1, H2, L2 co-expressed in CHO-3E7, protein A, LC-MS.
Assay [25] concerns the target Design 4320 L1: CR8071 lambda light chain T116F_K129T_V133D_S176F. Kind of assay: SMCA, LC-MS.
Assay [26] has the same target. The assay can be described thus: SMCA: H1, L1, H2, L2 co-expressed in CHO-3E7, protein A, LC-MS.
The target in assay [27] is Design 4320 L2: SGN-CD19a kappa light chain Q124K_L135A_T178R. Kind of assay: SMCA, LC-MS.
Assay [28] addresses Designs 4008 and 4010 L1: CR8071 lambda light chain K129T_V133D. Kind of assay: SMCA, LC-MS.
Assay [29] shares this target. Kind of assay: SMCA: H1, L1, H2, L2 co-expressed in CHO-3E7, protein A, LC-MS.
The target of assay [30] is SGN-CD19a kappa light chain L2 with V133G_S176D (SMCA design 2188). Kind of assay: SMCA: four chains co-expressed, protein A, LC-MS.
For assay [31] the target is unchanged. Kind of assay: SMCA LC-MS.
Assay [32] has as its target SGN-CD19a kappa light chain L2 with Q124E_Q160E_T180E (SMCA design 2826). Kind of assay: SMCA: four chains co-expressed, protein A, LC-MS.
The target is the same in assay [33]. Kind of assay: SMCA: four chains co-expressed, protein A, LC-MS. This is another data set of the same source.
Assay [34] has the same target. Kind of assay: SMCA LC-MS.
Assay [35] has the same target. The assay can be described thus: SMCA LC-MS. This is another data set of the same source.
The target in assay [36] is SGN-CD19a kappa light chain L2 S121K_Q124R_T178R (design 3967, Systems B and C). Kind of assay: SMCA: H1, L1, H2, L2 co-expressed, protein A, LC-MS.
Assay [37] has the same target. The description is as above. The source holds these as a separate data set.
The target is the same in assay [38]. Described as above. The source holds these as a separate data set.
For assay [39], the target named is SGN-CD19a kappa light chain L2, design 2188 (V133G_S176D). The assay can be described thus: SMCA, System C, LC-MS.
The target is the same in assay [40]. Kind of assay: SMCA, System C.

“And” between values parts separate entries of the source, which are not always exact repeats. Equal values may be shown once. Read-outs that look alike come from different tables or passages of the source.

Consider “CR8071 full-length heavy chain H1 with L143E_K145T (SMCA design 2826)”, for which the % H1L1 Pairing in [1] was found to be 27.8%. Also, in [2], the Change in % H1L1 Pairing with respect to wild type was -40.3%.

In the case of “CR8071 full-length heavy chain H1 with Q39R (SMCA design 34)”, in assay [3], the % H1L1 Pairing came to 92.6%. Also, the Change in % H1L1 Pairing with respect to wild type in assay [4] came to 24.5%.

With “CR8071 heavy chain H1, design 2188 (L124E)”, the Change in % H1L1 Pairing with respect to wild type in assay [5] is -23.5%. This substance registered a % H1L1 Pairing in assay [6] of 24.9%.

“Design 2994 H1: CR8071 heavy chain L143E_K145T_Q179E”: the Change in % H1L1 Pairing with respect to wild type in assay [7] was -22.1%. Moreover, the % H1L1 Pairing in assay [8] was determined as 26.3%.

In the case of “Design 2994 H2: SGN-CD19a heavy chain L143K”, the Change in % H2L2 Pairing with respect to wild type in [9] is 45% and 20.1%. Further, in assay [10], the % H2L2 Pairing was 99.2% and 99.7%.

Take “Design 3954 H2: SGN-CD19a heavy chain S188K_K228D”: the values for the Change in % H2L2 Pairing with respect to wild type in assay [11] and in assay [13] were 7.6% and 19.1%, respectively. Moreover, the % H2L2 Pairing in [12] was 61.8%; in assay [13], 98.7%.

For “Design 3997 H1: CR8071 heavy chain A125R_L143E_K145T_Q179E”, the Change in % H1L1 Pairing with respect to wild type in assay [14] amounted to 27.9%. In assay [15], the % H1L1 Pairing is 96%.

In the case of “Design 3997 H2: SGN-CD19a heavy chain S188K_K228D”, the Change in % H2L2 Pairing with respect to wild type in [16] stood at 28.6%. Besides, the % H2L2 Pairing in [17] was 99.9%.

On to “Design 4008 H2: SGN-CD19a heavy chain L143E_K145T_Q179E”, for which the Change in % H2L2 Pairing with respect to wild type in [18] was 33.3% and 38.4%.

For “Design 4010 H2: SGN-CD19a heavy chain L124E_K145T_Q179E”, the Change in % H2L2 Pairing with respect to wild type in assay [19] was 33.9% and 38.7%.

“Design 4040 H1: CR8071 heavy chain S186R”: the Change in % H1L1 Pairing with respect to wild type in assay [20] is 30.6%. Besides, the % H1L1 Pairing in assay [21] turned out to be 98.7%.

For “Design 4040 H2: SGN-CD19a heavy chain L45P_L143E_K145T_Q179E”, the Change in % H2L2 Pairing with respect to wild type was 27.3% in assay [22] and 21.6% in [23]. Also, the % H2L2 Pairing in assay [24] is 75.8% and 98.6%.

Turning to “Design 4320 H1: CR8071 heavy chain L143K_F174G”, the Change in % H1L1 Pairing with respect to wild type in assay [25] worked out at 14.3%. Also, in [26], the % H1L1 Pairing worked out at 96.6%.

In the case of “Design 4320 H2: SGN-CD19a heavy chain L143E_K145T_Q179E_V190F”, in assay [27], the Change in % H2L2 Pairing with respect to wild type was 17.9% and 21.5%.

As to “Designs 4008 and 4010 H1: CR8071 heavy chain A139W_L143K”, the Change in % H1L1 Pairing with respect to wild type in assay [28] was 17.3% and 17%. The % H1L1 Pairing in assay [29] is 99.6% and 99.3%.

In assay [30], “SGN-CD19a full-length heavy chain H2 with L124R (SMCA design 2188)” registered a % H2L2 Pairing of 92.9%. Further, the Change in % H2L2 Pairing with respect to wild type in assay [31] turned out to be 38.7%.

“SGN-CD19a full-length heavy chain H2 with Q179K (SMCA design 2826)”: the values for the % H2L2 Pairing in assay [32] and in assay [33] were 98% and 89.7%, respectively. For the same substance, the Change in % H2L2 Pairing with respect to wild type in assay [34] was 26.7%; in assay [35] it was 35.5%.

With “SGN-CD19a heavy chain H2 L143E_K145T_Q179E_K228D (design 3967, Systems B and C)”, the Change in % H2L2 Pairing with respect to wild type in [36] is 44.4%; in assay [38], 28.7%. Besides, the % H2L2 Pairing in assay [37] was 98.6%; in assay [38] it was 100%.

For “SGN-CD19a heavy chain H2, design 2188 (L124R)”, the Change in % H2L2 Pairing with respect to wild type in assay [39] is 19.9%. This substance also had a % H2L2 Pairing in assay [40] of 99.5%.
